Experimental data published in the supplement of paper PMC9876800.

Test system: peptide library, one residue held at a place counted from the S/T acceptor
Assay: relative phosphorylation of the sub-library (ratio to the mean residue at this position); higher = residue favoured
Method in brief: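 Relative sub-library phosphorylation, a ratio to the mean residue at that position, was obtained by phosphorimaging and densitometry of spots on streptavidin membranes. Before capture, purified recombinant kinases were incubated for 90 min under kinase-specific conditions with 50 μM biotinylated degenerate peptide sub-libraries and 50 μM ATP spiked with γ-32P-ATP. Each sub-library fixed one residue at one position around a central Ser/Thr.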

Sequence of BRSK1, construct: Full length, human (Q8TDC3 whole entry, looked up): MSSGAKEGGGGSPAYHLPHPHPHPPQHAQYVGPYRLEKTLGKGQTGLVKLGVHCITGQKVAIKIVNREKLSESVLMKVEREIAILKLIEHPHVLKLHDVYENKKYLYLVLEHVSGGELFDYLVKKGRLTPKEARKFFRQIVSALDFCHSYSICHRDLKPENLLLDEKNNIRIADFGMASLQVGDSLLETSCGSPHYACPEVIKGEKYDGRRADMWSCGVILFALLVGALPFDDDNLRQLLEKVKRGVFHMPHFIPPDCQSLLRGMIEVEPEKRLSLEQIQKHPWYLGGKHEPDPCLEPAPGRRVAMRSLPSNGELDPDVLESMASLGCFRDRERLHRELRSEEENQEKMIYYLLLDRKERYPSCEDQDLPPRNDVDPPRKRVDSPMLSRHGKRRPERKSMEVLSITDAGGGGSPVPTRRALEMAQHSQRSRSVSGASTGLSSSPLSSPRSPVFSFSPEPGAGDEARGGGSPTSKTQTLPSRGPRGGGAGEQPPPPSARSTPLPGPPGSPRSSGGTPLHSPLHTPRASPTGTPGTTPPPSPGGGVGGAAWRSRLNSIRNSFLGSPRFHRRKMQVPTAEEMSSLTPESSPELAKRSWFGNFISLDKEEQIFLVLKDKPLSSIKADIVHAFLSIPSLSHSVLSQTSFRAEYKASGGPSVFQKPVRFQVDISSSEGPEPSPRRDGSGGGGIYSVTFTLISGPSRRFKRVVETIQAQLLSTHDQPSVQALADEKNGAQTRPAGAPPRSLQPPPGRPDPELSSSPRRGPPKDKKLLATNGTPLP
Sequence of PAK4, construct: aa295-end, human (O96013 295-591, looked up): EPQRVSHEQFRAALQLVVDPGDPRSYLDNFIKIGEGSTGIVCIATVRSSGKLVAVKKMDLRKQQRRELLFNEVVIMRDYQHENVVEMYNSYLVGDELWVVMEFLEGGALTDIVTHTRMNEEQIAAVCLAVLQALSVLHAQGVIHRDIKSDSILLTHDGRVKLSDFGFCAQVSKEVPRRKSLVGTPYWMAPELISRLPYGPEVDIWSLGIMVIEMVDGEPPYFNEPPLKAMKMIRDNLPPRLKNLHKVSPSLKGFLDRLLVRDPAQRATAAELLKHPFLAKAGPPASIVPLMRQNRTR

PAK4, construct: aa295-end, human (from UniProt O96013)
relative phosphorylation
Settings	at +1	at +2	at +3	at +4	at -1	at -2	at -3	at -4	at -5
A fixed	0.553	4.9	0.88	0.922	0.732	0.279	0.735	1.12	1.3
D fixed	0.199	0.382	0.663	0.928	0.373	0.145	0.295	0.611	0.77
E fixed	0.194	0.23	0.814	0.754	0.273	0.136	0.265	0.603	0.58
F fixed	1.3	0.849	1.81	0.823	1.06	0.445	0.54	0.844	0.852
G fixed	0.327	0.715	0.996	1.13	0.534	0.244	0.739	1.35	1.29
H fixed	0.9	0.663	1.12	1.23	1.34	0.76	0.801	1.17	1.09
I fixed	1.79	1.14	1.36	0.8	0.563	0.284	0.415	0.655	0.727
K fixed	0.621	0.267	0.544	0.817	1.45	0.725	3.15	1.51	1.53
L fixed	1.38	0.673	1.35	0.788	1.18	0.244	0.49	0.74	0.71
M fixed	1.96	0.588	1.1	0.877	1.38	0.334	0.599	0.913	0.714
N fixed	0.366	0.542	0.542	0.91	0.967	0.287	0.77	0.873	1
P fixed	0.215	0.667	0.797	2.16	0.251	0.634	0.684	0.868	1.03
Q fixed	0.694	0.433	0.682	1.02	1.06	0.641	0.96	0.902	0.897
R fixed	0.964	0.297	0.615	0.983	2.76	10	4.61	1.98	1.81
V fixed	1.47	2.1	1.07	0.761	0.579	0.282	0.413	0.66	0.75
W fixed	2.49	0.806	1.45	1.21	1.19	0.417	0.876	1.27	0.987
Y fixed	1.57	1.75	1.2	0.894	1.3	1.1	0.651	0.941	0.961
pThr fixed	0.339	0.403	0.705	1.45	0.233	0.218	0.398	0.688	0.662
pTyr fixed	0.514	0.767	1.34	1.19	0.261	0.232	0.402	0.579	0.65

BRSK1, construct: Full length, human (from UniProt Q8TDC3)
relative phosphorylation
Settings	at +1	at +2	at +3	at +4	at -1	at -2	at -3	at -4	at -5
A fixed	0.673	0.575	0.697	0.51	1.03	2.4	0.781	1.28	1.05
D fixed	0.631	0.801	2.83	0.644	0.813	0.773	0.334	0.552	0.451
E fixed	0.649	0.672	0.947	0.556	0.748	0.6	0.374	0.678	0.494
F fixed	1.67	1.41	1.4	1.09	0.72	1.04	0.522	0.648	1.12
G fixed	0.458	0.349	0.67	0.572	1.24	1.12	0.616	1.29	0.961
H fixed	0.966	1.64	1.02	0.623	1.08	1	1.1	1.19	0.765
I fixed	0.636	0.435	0.353	3.13	0.494	0.534	0.235	0.422	0.943
K fixed	0.703	0.256	0.669	0.597	1.24	1.25	2.41	2.03	1.25
L fixed	1.12	0.672	0.529	2.95	0.951	0.476	0.32	0.56	1.09
M fixed	3.06	0.841	0.614	1.67	1.17	0.627	0.546	0.829	1.55
N fixed	1.08	1.1	2.82	0.835	0.94	0.902	0.596	0.699	0.637
P fixed	0.306	0.467	0.32	0.628	1.53	0.735	0.673	1.48	0.939
Q fixed	1.18	1.13	1.15	0.714	0.996	0.734	0.755	0.985	0.829
R fixed	0.985	0.357	0.729	0.575	1.34	1.7	6.17	2.19	2.01
V fixed	0.73	0.381	0.405	0.861	0.75	1.01	0.311	0.678	0.857
W fixed	0.787	2.02	0.804	0.59	0.696	1.12	0.667	0.774	0.911
Y fixed	1.37	3.9	1.04	0.465	1.26	0.984	0.586	0.726	1.14
pThr fixed	1.81	0.59	0.438	0.686	0.407	0.465	0.392	0.723	0.544
pTyr fixed	0.633	0.948	0.928	0.475	1.75	0.606	0.657	0.678	0.776
